Laboratory results as given in the nanobody polyreactivity screen of Harvey et al. (2022).

Experiment: yeast display, Sf9 membrane polyspecificity reagent, FACS + sequencing; frameworks hold sequencing errors
Summary of the method: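 Sorting gates, low and high (top ~1%), were placed on anti-HA fluorescence to track expression and on streptavidin fluorescence to track reagent binding. A clone's polyreactivity label is taken from the gate it came out of. The reagent was 10% biotinylated, detergent-solubilized Sf9 membrane, applied for 1 hour at 4 °C to galactose-induced yeast display cells.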

Sequence | polyreactivity (PSR sort gate)
QVQLVESGGGLVQAGGSLRLSCAASGFTFFRNAMGWYRQAPGKERELVAAISGSGGSTYYADSVKGRFTISRDNATNTVYLQMNSLIPVDTAVYYCATYSYPAKVREAYNYWGQGTQVTVSS | low polyreactivity
QVQLVESGGGLVQAGGSLRLTCAASGSIFCAYTMGWSRQAPGKECDLVAAISASGGSTYYADSVKGRFTISRDNAKNTVYLQMNSLNPDDTAVYYCAAVYDLGYYGPIWAIVLDDYWGQGTQVTVSS | low polyreactivity
QVQLVESGGGLVLAAGSLRLSCAASGFIFGSYAMGWYRQAPGKERELFAAISRSGGRTYYADSVKGRFTISRDNAKNTVYLQMNSLKPEDTAVYYCAAVHLLVYPTYDYWGQGTQVTVSS | high polyreactivity
QVQLVESGGGLVQAGGSLRLSCAASGRIFPTYTMGWYRQAPGKERELVAAISGRGGNTYYADSVKGRFTISRDNAKNTVYLQMNSLKPEDTAVYYCAARYPVRNGYWGQGTQVTVSS | high polyreactivity
QVQLVEAGRGLVHAGCSLRLSCASSGNIFANYSMGWYRQAPGKERELVAAIRWSASRTYYADSVKGRFTISRDNAMNTVYLQMNSLKPEDTAVYYCAATIDTLWDYYYDYWGQGSQVTVSS | high polyreactivity
QVQLVESGGGLVQAGGSLRLSCAASGLTFSWNAMGWYRQAPGKERELVAAISSRGGSTYYADSVKWRFKISRDNAKNTVYLQMNSLKPEDTAVYYCNAHGRRFLGDYGYWGQGTQVTVSS | low polyreactivity
QVQLQESGGGLVQAGGSLRLSCAASGTISTDSYMGWYRQAPGKERKFVATIGYGGITYYADSVKGRSTISRDSAKNTVYLQMNSLKPEDTAVYYCAVNSYYPDHYWYWGRGTQVTVSS | high polyreactivity
QVQLVESGGGLVQAGGSLRLSCAASGFIFSWYVMGWYRQAPGKERELVAAISQSGGDTYYADSVKGRFTFSRDNAKNTVYLQMNILKPEDTAVYYCAVGRVGRFYYWGQGTQVTVSS | high polyreactivity
QVQLVESGGGLVQAGGSLRLSCAASGFTFGGYTMGWYRQAPGKERELVAAISRSGGSTYYADSVKGRFTISRDNAKNTVYLLMNSLKPEDTAVYYCAVTYSVRTYWYDYWGQGTQVTVSS | high polyreactivity
QVQLVESGGGLVQAGGSLRLSCAASGSNFYSYAMGWYRQAPGKERELVAAITGDGGSTYYADSVKGRFTISRDNAKNTVYLQRNSLKPEDTAVYYCAVPHTYRRYDYWGQGTQVTVSS | low polyreactivity
QVQLVESGGGLVQAGGSLRLSCAASGSIFFTYVMGWYRQAPGKERELVAAISSDDNTNYADSVKGRFTISRDNAKNTVYLQMNSLKPEDTAVYYCNADTTLYPYYDYGYYDYDYWGQGTQVTVSS | low polyreactivity
QVQLVESGGGLVQAGGSLRLSCAASGSTFIYNTMGSYRQAPGKERELVAAISGSGGRTYYADSVKGRFTISRDNAKNTVYLQMNSLKPEDTAVYYCAARYYTKLYWGQGTQVTVSS | high polyreactivity
QVQLVESGGGLVQAGGSLRLICAASGFTFRYYAMGWYRQAPGTERELVAAISAGGGSTYYADSVKGRFTISRDNAKNTVYLQMNSLKPEETAVYYCAAAGARPGYDYWGQGTLVTVSS | high polyreactivity
QVQLVESGGGLVQAAGSLRLSCAASGITFVTYDRGWYRQAPGKEWELVAAISRSGVRTYYADSVKWRFTISRDNAKNTVYLQMNSLKPEDTAVYYCAAERKNKYDYWGLGTQVTVSS | high polyreactivity
QVQLVESGGGLVQAGGSLRLSCAASGRTSGNYAMGWYRPAPGKERELVAAMRYSGSSTFYADSVKGRFTISRDNAKNTVYLQMNSLKPEDTAVYYCARDIRRKGFRYDYWGQGTQVTVSS | high polyreactivity
QVQLVESGGGLVQAGGSLRLSCAASGIIFSFYAMGWYRKAPGKERELVAAISQSGGSTYYADSVKGRFTISRDNAKNTVYLQMNSLKPEDTAVYYCAVAGWYGSEYWGQGTQVTVSS | high polyreactivity
QVQLEESGGGLVQAGGSLRLSCAASGIFTRYAMGWYRQAPGKERELVAAISRGGGSTYYADTVKGRFTISRDNAKNTVYLLMNSLKPEDTAVYYCYTYKRPRSPGPKFYYWGQGTQVTVSS | high polyreactivity
QVQLVESGGGLVQAGGSLRLSCAASGSIFTHNAMGWYRQAPGKERVLVAAISSGGSTNYADSVKGRFTISRDNAKNTVYLQMNSLKPEDTAVYYCAKSIDGWYWRRRRYDYWVQGTQVTVSS | low polyreactivity
QVQLVESGGGLVQAGGSLRLSCAASGSIFRSNAMGWYRQAPGQERELVAAISRSGGRTYYADSVKGRFTISRDNAKNTVYLQMNSLKPEDTAVYYCAAQVVRSLKYEYWGQGTQVTVSS | high polyreactivity
QVQLVESGGGLVQAGGSLRLSCAASGSTFLTYAMGWYRQAAGKERELVAGISYSTGSTYYADSVKGRFTISRDNAKNTVYLQMNSLKPEDTAVYYCAADEWDGLWYYYYFNYEDWGQGTQVTVSS | low polyreactivity
QVQLVESGGGLVQAGGCLRLSCAASGRIFTTNPMGWYRPAPGKERELVARITYSGTSTYYADSVKGRFTISRDNAMNTVYLQMNSLKPEDTAVYYCAAKVWWRKYQLLDYYYWGQGTQVTVSS | high polyreactivity
QVQLVESGGGLVQAGGSLRLSCAASGSTFVSYAMGWYRQEPGKERELVATISQSGGSTSYADSVKGRFTISRDNAKNTVYFQMNCRKPEDTAVYNCAARLRAPHRRSYNYWGQGTQVTVSS | high polyreactivity

Sequence | polyreactivity (PSR sort gate)
QVQLVESGGGLVQAGGSLRLSCAASGRIFGAYAMGWYRQAPGKERELVADIRSTGSTNYADSVKGRFTISRDNAKNTVYLQMNSLKPEDTAVYYCAARWRSRRFGSGFEYWGQGTQVTVSS | high polyreactivity
QDQLGESGGGLLQAGGSLRLSCAASGRTFRYYAMGSYRQEPGKERELVAAISISGGNTYYADSVKGRFTISRDHAKNTVYLQMNSLKPEDTAVYYCAASFSSRFYRARVDYWGQGTQVTVSS | high polyreactivity
QVQLVESGGGLVQAGGSLRLSCAASGITLYKYAMGWYRQAPGKERELVASISRSGGSTYYADSVKGRFTISRDNAKNTVYLQMNSLKPEDTAVYYCNARAKSYRFGYWGQGTQVTVSS | high polyreactivity
HVQLVESGGGLVQAGGSLRLSCAASGRIFASYPMGWYRPAPGNERELVAAISLSGGSTYYADSVKGRFTISRDNAKNTVYLQMNSLKPEDTAVYYCAAKNYRRYRDYYWGQGTQVTVSS | high polyreactivity
QVQLVESGGGLVQAGGSLRLSCAASGITFPGNAMGWYRQAPGKERELVAVISFGDGGTYYADSVKGRFTISRDNAKNTVYLQMNSLKPEDTAVYYCATDYQSTSVWGGHFVINPYDYWGQGTQVTVSS | low polyreactivity
QVQLVESGGGLVQAGGSLRLSCAASGSIFYPYAMGWYRQANGKERELDAAITWRGGRTYYADSVKGRFTISRDNAKNTVYLQMNSLKPEDTAVYYCAAGWLTRSYEYDYWGQGTQVTVSS | high polyreactivity
QVQLVESGGGLVQAGGSLRLSFAPSGNSFGRYAMGWYRQAPGKERELVAAITRSGGTTYYADSVKGRFTLSRDNAKNTGYLQMNSLKPEDTAVYYCATDGDSTKLDYWGQGTQVTVSS | low polyreactivity
QVQLVESGGGLVQAGGSLRLSCAASGFTFYRNAMGWSRKAPGKERELVAAISTSGGSTHYADSVKGRFTISRDNAKNTVYLQMNSLKPEDTAVYYCAKRRSIRDEFGYWGQGTQVTVSS | high polyreactivity
QVQLVESGGGLVQAGGSLRLSCAASAMGRYRQAPGKERELVAGITSSGGSTYYADSVKGRFTISRDNAKNTVYLQMNSLKPEDTAVYYCNADNAGYGYWSYPYYYWGQGTQVTVSS | low polyreactivity
QVKLVESGGGLVQAGGSLRLSCAASGSTFWGYAMGWYRQEPGKERELVATITTGGSTNYADSVKGRFTISRDNAKNTVYLQMNSLKPEDTAVYYCAKEVDPGSITSYGAGAHFGFDYWGQGTQVTVSS | low polyreactivity
QVQLVESGGGLVQAGASLRLSCAASGSISKSYAMGWYRQAPGKERELVAAMSWRGGSTYADSVKGRFTISRDNAKNTVYLLMNCLKPEDSAVYYCAATNYGTFWGGQSERYDYWGQGTQVTVSS | low polyreactivity
QIQLVESGGGLVQAGGILRISCAASGRTFGSNTMGWSRQAPGKERELVAAISGTGTSTYYADSVKGRFTISRDNAKNTVYLQMNILKPEDTAVFYCAAGWYKYLFQPHDYWGQGTQVTVSS | low polyreactivity
QVQLVESGGGLVQAGGSLRLSCAASGLTFIYYAMGWYRQAPGKEREMVAAISTSGASTYYADSVKGRFTISRDNAKNTVYLQMNSLKPEVSAVYYCNGEYFGEYRDYGYWGQGTLVTVSS | low polyreactivity
QVQLVESGGGLVKAGGSLRLSCAASGRTFQVYDMGWYRQAPGKERELVAGITRAGSTYYADSVKGRFTISRDNAKNSVYLQMNRLKPEDSAVYYCAASRWHGYNYWGQGTQVTVSS | high polyreactivity
QVQLVESGGGLVQAGGSLRLSCAASGRTFDRNAMGWYRKAPGKERELVARITIDGSTNYADSVKGRFTISRDNAKNTVYLQMNSLKPEDTGVYYCAAYSASYGGYDYWGQGTQVTVSS | high polyreactivity
QVQLVESGGGLVQAGGSLRLSCAASGTIFSVNAMGWYRQRLGKKGSWWPLFLTLLPSTYYADSVKARFTISRDNAKNTVYLQMNSLKPEDTAVYYCNAVYSVDFPTPTSDGDPDGFDYWGQGTQVTVSS | low polyreactivity
QVQLVESGGGLVQAGGILRLSCAASGSIFRVYAMGWYRQAPGKERELVAGITSTGTRTYYADSVKGRFTISRDNAKNPVSLQKNSLKPEDTAVYYCAARDTYRKAYYYWGHGTQVTVSS | high polyreactivity
QVQLVESGGGLVQAGGSLRLSCAASGSTFPANAMGWYRQAPGKERELVATISWSGGRTYYADSVKGRFTISRDNAKNTVYLQMNSLKPEDTAVYYCAKGYYWLSTYGDSRYGYWGQGTQVTVSS | high polyreactivity
QVQLVESGGGLVQAGGSLRLSCAASGRTFTYYAMGWSRQAPGKERELVAGISSGGGSTYYADSVKGRFTISRDNAKNSVYFQMNILNPEDTAVYYCATAKRQGCYSEYDYWGQGTQVTVSS | high polyreactivity
QVQLVESGGGLVQAGGSLRLSCAASGRTIQYNAMGWYRQAPGKERQLVAAISSSGGSTYYADSVKGRFTISRDNAKNTVYLQMNSLKPEDTAVYYCNAYSQSWNFYGDGDYWGQGTQVTVSS | low polyreactivity
QVQLVESGGGLVQAGGSLRLTCAASGGIFGINAMRWYRQAPGKERELVAAITSGDSTNYADSVKGRFTISRDNAKNTVYLQMNSLKPEDTAVYYCNADPDTYVSTITHDSWGQGTQVTVSS | low polyreactivity
